Results as given in US20210371503A1 (UNIVERSITY OF COLOGNE, published 2021).
Like-named read-outs stand apart in the source and are kept apart here.

B1: MnC4t1p1_A11 (antibody, V domains shown)
VH: EVQLVESGGGLVQPGGSLRLSCAASGFTFSSYSMNWVRQAPGKGLEWVSYISSSSNTRYYTDSVMGRFTISRDNAKNSLFLQMNSLRAEDTAVYYCASSKGFCSGGSCSDYWGQGTLVTVSS
VL: EIVLTQSPGTLSLSPGERATLSCRASQSVSSSYLAWYQQKPGQAPRLLIYGVSSRATGIPDRFSGSGSGTDFTLTISRLEPEDFVVYYCHQYGSSPWTFGQGTKVEIK
B2: DZIF-10c (antibody, V domains shown)
VH: QVQLVESGGGVVQPGRSLRLSCAATGFTFRRYGMHWVRQAPGKGLEWVAGILFDGSNKYYVDSVKGRFTISRDSSRNTLYLQLNSLRREDTAVYYCAKGGDYEWELLESWGQGTLVTVSS
VL: DIQMTQSPSTVSASVGDRVTITCRASQSIDNWLAWYQEKPGKAPKVLIYKASSLESGVPSRFSGRGSGTEFTLTISSLQPGDFATYYCQHYHSFPLTFGGGTKVDIKR
notes: also called HbnC3t1p1_F4(-K); EX14870

Legend:
[1] = molecular target: T1, receptor-binding domain (RBD) of the spike (S) protein of SARS-CoV-2 (SARS-CoV-2, UniProt P0DTC2 319-541)
[2] = molecular target: T1, receptor-binding domain (RBD) of the …; test: ELISA, coated RBD [cont'd]
[3] = molecular target: S1 (truncated S1 subunit); test: ELISA, coated truncated S1 [cont'd]
[4] = molecular target: T1, receptor-binding domain (RBD) of the …; test: assay not stated; row Binding Affinity Spike RBD

Row | Binder | Kd [1] | EC50 [2] | EC50 [3] | Kd [4]
1 | B1 | 2 µM | < 100 µg/mL | < 100 µg/mL | –
2 | B2 | – | – | – | 0.002 µM
